Test results reported in patent publication US20250346679A1 (INVOX PHARMA, published 2025).
Where a chain is given by its changes, count along the chain named.

T1: cynomolgus CD137, cell-surface (cynomolgus, UniProt Q07011 24-255 (human entry))
T1 chain: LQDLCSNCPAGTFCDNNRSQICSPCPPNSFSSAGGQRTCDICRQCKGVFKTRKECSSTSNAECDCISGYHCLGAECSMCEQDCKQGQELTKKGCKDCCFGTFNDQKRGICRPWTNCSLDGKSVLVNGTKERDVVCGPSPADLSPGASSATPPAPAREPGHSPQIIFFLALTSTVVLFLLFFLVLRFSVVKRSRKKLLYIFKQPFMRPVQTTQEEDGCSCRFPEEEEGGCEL

B1: FS22-053-008-AA/G12v2 (bispecific antibody, human IgG1, kappa, L234A L235A)
heavy: EVQLVQSGAEVKRPGASVKVSCKASGYTFTSYGISWVRQAPGQGLEWMGWISAYSGGTNYAQKLQGRVTMTTDTSTSTAYMELRSLRSDDTAVYYCARDLFPTIFGVSYYYYWGQGTLVTVSSASTKGPSVFPLAPSSKSTSGGTAALGCLVKDYFPEPVTVSWNSGALTSGVHTFPAVLQSSGLYSLSSVVTVPSSSLGTQTYICNVNHKPSNTKVDKKVEPKSCDKTHTCPPCPAPEAAGGPSVFLFPPKPKDTLMISRTPEVTCVVVDVSHEDPEVKFNWYVDGVEVHNAKTKPREEQYNSTYRVVSVLTVLHQDWLNGKEYKCKVSNKALPAPIEKTISKAKGQPREPQVYTLPPSRDELNPPYLFSNQVSLTCLVKGFYPSDIAVEWESNGQPENNYKTTPPVLDSDGSFFLYSKLTVDYWRWLEGNVFSCSVMHEALHNHYTQKSLSLSPG
light: DIQMTQSPSTLSASVGDRVTITCRASQSISGRLAWYQQKPGKAPNLLIYEASNLESGVPSRFSGSGSGTEFTLTISSLQPEDFATYYCQQSYSWPRTFGQGTKVEIKRTVAAPSVFIFPPSDEQLKSGTASVVCLLNNFYPREAKVQWKVDNALQSGNSQESVTEQDSKDSTYSLSSTLTLSKADYEKHKVYACEVTHQGLSSPVTKSFNRGEC
B2: FS22-053-017-AA/E05v2 (bispecific antibody, human IgG1, kappa, L234A L235A)
heavy: B1 heavy with D424Y, Y425H
light: DIQMTQSPSTLSASVGDRVTITCRASQSISGRLAWYQQKPGKAPNLLIYEASNLESGVPSRFSGSGSGTEFTLTISSLQPEDFATYYCQQSYSTPRVTFGQGTKVEIKRTVAAPSVFIFPPSDEQLKSGTASVVCLLNNFYPREAKVQWKVDNALQSGNSQESVTEQDSKDSTYSLSSTLTLSKADYEKHKVYACEVTHQGLSSPVTKSFNRGEC
B3: FS22-053-017-AA/E12v2 (bispecific antibody, human IgG1, kappa, L234A L235A)
heavy: B1 heavy with T28P, D424Y, Y425H
light: DIQMTQSPSTLSASVRDRVIITCRASQSIGNRLAWYQHKPGKAPKLLIYEASTSETGVPSRFSGSGSGTDFTLTISSLQPEDFATYYCQQSYSTPYTFGQGTKLEIKRTVAAPSVFIFPPSDEQLKSGTASVVCLLNNFYPREAKVQWKVDNALQSGNSQESVTEQDSKDSTYSLSSTLTLSKADYEKHKVYACEVTHQGLSSPVTKSFNRGEC
B4: FS22-053-017-AA/G12v2 (bispecific antibody, human IgG1, kappa, L234A L235A)
heavy: B1 heavy with D424Y, Y425H
light: B1 light
B5: FS22-172-004 Fcab clone displayed on yeast (designed binder)
chain: GQPREPQVYTLPPSRDELNYIYPPYNQVSLTCLVKGFYPSDIAVEWESNGQPENNYKTTPPVLDSDGSFFLYSKLTVGADRWLEGNVFSCSVMHEALHNHYTQKSLSLSPG
B6: FS22-172-006 Fcab clone displayed on yeast (designed binder)
chain: B5 chain with N19R, Y20K, I21Y, V28L
B7: FS22-172-005 Fcab clone displayed on yeast (designed binder)
chain: B5 chain with N19Q, Y20Q, I21V
B8: FS22-172-003 Fcab clone displayed on yeast (designed binder)
chain: B5 chain with N19P, Y22I
B9: FS22-053-012 Fcab clone displayed on yeast (designed binder)
chain: B5 chain with Y20P, I21P, P23L, P24F, Y25S, G78D, A79H, D80M
notes: yeast display clone, FS22-053 EF library
B10: FS22-172-002 Fcab clone displayed on yeast (designed binder)
chain: B5 chain with N19P, Y20F, I21Q, Y22M
B11: FS22-053-009 Fcab clone displayed on yeast (designed binder)
chain: B5 chain with Y20P, I21P, P23L, P24F, Y25S, G78E, A79H, D80T, E84D
notes: as for B9
B12: FS22-053-010 Fcab clone displayed on yeast (designed binder)
chain: B5 chain with Y20P, I21P, P23L, P24F, Y25S, G78D, A79Y, D80M, E84D
notes: as for B9
B13: FS22-053-008 Fcab clone displayed on yeast (designed binder)
chain: B5 chain with Y20P, I21P, P23L, P24F, Y25S, G78D, A79Y, D80W
notes: as for B9
B14: FS22-172-001 Fcab clone displayed on yeast (designed binder)
chain: B5 chain with N19P, Y20F, I21V, Y22M
B15: FS22-053-011 Fcab clone displayed on yeast (designed binder)
chain: B5 chain with Y20P, I21P, P23L, P24F, Y25S, G78D, A79Y, D80W, L83T, E84D
notes: as for B9

Molecular target: human CD137, cell-surface (human, UniProt Q07011 24-255)
Assay: cell-based or functional assay

B1 and B2 are within 1.5-fold of each other in “EC50 (nM), hIL-2 release, CD8+ T cells, donor 171115A, HEK.hPD-L1 XL” value: 0.13 nM for the first, 0.15 nM for the second.

B3 and B4 are within 1.5-fold of each other in “EC50 (nM), hIL-2 release, CD8+ T cells, donor 171115A, HEK.hPD-L1 XL” value: 0.11 nM for the first, 0.1 nM for the second.

Going from B1 to B2, the “EC50 (nM), hIL-2 release, CD8+ T cells, donor 171115A, MDA-MB-231 XL” value falls from 0.02 nM to 0.01 nM (2-fold).

B3 and B4 are the same in “EC50 (nM), hIL-2 release, CD8+ T cells, donor 171115A, MDA-MB-231 XL” value: 0.01 nM for the first, 0.01 nM for the second.

B1 and B2 are the same in “EC50 (nM), hIL-2 release, CD8+ T cells, donor 171115B, HEK.hPD-L1 XL” value: 0.12 nM for the first, 0.12 nM for the second.

Compared with B3, B4 is 1.7-fold higher in “EC50 (nM), hIL-2 release, CD8+ T cells, donor 171115B, HEK.hPD-L1 XL” value: 0.12 nM for the first, 0.2 nM for the second.

First: B1
Second: B2
The “EC50 (nM), hIL-2 release, CD8+ T cells, donor 171115B, MDA-MB-231 XL” value of the first is 2-fold higher: 0.02 nM for the first, 0.01 nM for the second.

B3 and B4 are the same in “EC50 (nM), hIL-2 release, CD8+ T cells, donor 171115B, MDA-MB-231 XL” value: 0.01 nM for the first, 0.01 nM for the second.

Molecular target: T2, hCD137-mFc-Avi (human; mouse, UniProt Q07011 24-186, biotin on the Avi sequence where the biotinylated form was used)
T2 construct: also called human CD137-mFc-Avi; dimeric human CD137; not shown: mouse IgG2a Fc domain (mIgG2a Fc)
Assay: flow cytometry of yeast clones with 10 nM dimeric human antigen

T2 sequence (Q07011 24-186): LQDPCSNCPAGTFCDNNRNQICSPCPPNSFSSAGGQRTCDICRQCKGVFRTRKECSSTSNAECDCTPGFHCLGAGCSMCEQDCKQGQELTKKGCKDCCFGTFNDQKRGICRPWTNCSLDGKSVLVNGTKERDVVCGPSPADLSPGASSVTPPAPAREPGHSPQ

B5 and B6 cannot be ordered by “% APC positive cells” value: greater than 10% for the first, greater than 10% for the second.

B7 and B8 cannot be ordered by “% APC positive cells” value: greater than 10% for the first, greater than 10% for the second.

B9 and B10 cannot be ordered by “% APC positive cells” value: greater than 30% for the first, greater than 10% for the second.

B11 and B12 cannot be ordered by “% APC positive cells” value: greater than 30% for the first, greater than 30% for the second.

B13 and B14 cannot be ordered by “% APC positive cells” value: greater than 30% for the first, greater than 10% for the second.

In the case of B15, the “% APC positive cells” value is reported as greater than 30%.

Molecular target: human PD-L1, cell-surface (human, UniProt Q9NZQ7 19-290)
Assay: cell-based or functional assay

Sequence of human PD-L1, cell-surface (Q9NZQ7 19-290): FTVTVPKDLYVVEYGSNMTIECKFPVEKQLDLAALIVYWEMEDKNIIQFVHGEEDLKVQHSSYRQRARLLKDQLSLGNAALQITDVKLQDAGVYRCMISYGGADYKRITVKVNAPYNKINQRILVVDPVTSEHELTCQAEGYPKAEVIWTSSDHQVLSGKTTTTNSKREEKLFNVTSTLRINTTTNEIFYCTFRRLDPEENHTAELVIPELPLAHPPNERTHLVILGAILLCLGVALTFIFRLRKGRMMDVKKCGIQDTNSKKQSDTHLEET

B3 was tested, and the “EC50 (nM), IFN-γ release, human MLR” value was 0.04 nM.

In the case of B3, the “Emax (pg/ml), IFN-γ release, human MLR” value is reported as 3330 pg/mL.

Molecular target: T1, cynomolgus CD137, cell-surface
Assay: cell-based or functional assay

B1 and B2 are within 1.5-fold of each other in “EC50 (nM) (crosslinked), mIL-2 release, DO11.10.cCD137 with HEK.cyPD-L1” value: 0.07 nM for the first, 0.1 nM for the second.

B3 and B4 are within 1.5-fold of each other in “EC50 (nM) (crosslinked), mIL-2 release, DO11.10.cCD137 with HEK.cyPD-L1” value: 0.11 nM for the first, 0.08 nM for the second.

B1 and B2 are within 1.5-fold of each other in “Emax (pg/ml) (crosslinked), mIL-2 release, DO11.10.cCD137 with HEK.cyPD-L1” value: 9660 pg/mL for the first, 9020 pg/mL for the second.

B3 and B4 are within 1.5-fold of each other in “Emax (pg/ml) (crosslinked), mIL-2 release, DO11.10.cCD137 with HEK.cyPD-L1” value: 9360 pg/mL for the first, 8930 pg/mL for the second.
